Test results from publication PMC549567.
Read-outs that look alike come from different tables or passages of the source.

T1: MutS (Escherichia coli, UniProt P23909 1-853)
T1 sequence: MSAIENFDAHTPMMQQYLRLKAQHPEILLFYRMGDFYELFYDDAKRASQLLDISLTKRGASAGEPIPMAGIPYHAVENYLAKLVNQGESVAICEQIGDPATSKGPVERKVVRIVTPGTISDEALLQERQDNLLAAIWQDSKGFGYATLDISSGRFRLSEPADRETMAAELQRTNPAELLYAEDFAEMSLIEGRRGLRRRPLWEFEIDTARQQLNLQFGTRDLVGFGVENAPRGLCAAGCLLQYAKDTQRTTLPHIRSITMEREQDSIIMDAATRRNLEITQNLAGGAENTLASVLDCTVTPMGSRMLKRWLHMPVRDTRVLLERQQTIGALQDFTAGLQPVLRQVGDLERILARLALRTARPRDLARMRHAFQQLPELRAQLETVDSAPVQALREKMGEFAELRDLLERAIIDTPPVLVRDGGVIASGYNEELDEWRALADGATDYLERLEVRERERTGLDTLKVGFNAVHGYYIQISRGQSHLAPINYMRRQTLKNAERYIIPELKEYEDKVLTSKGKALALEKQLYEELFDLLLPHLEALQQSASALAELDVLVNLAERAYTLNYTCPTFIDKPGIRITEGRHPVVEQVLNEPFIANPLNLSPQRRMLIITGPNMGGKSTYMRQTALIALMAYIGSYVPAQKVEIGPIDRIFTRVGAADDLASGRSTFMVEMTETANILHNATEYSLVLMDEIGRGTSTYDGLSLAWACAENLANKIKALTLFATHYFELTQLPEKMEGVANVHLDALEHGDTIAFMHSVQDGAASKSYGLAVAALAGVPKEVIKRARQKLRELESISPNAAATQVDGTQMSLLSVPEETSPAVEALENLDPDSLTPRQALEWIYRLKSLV

T2: MutSΔ800 (Escherichia coli, UniProt P23909 1-800, del801-853)
T2 sequence: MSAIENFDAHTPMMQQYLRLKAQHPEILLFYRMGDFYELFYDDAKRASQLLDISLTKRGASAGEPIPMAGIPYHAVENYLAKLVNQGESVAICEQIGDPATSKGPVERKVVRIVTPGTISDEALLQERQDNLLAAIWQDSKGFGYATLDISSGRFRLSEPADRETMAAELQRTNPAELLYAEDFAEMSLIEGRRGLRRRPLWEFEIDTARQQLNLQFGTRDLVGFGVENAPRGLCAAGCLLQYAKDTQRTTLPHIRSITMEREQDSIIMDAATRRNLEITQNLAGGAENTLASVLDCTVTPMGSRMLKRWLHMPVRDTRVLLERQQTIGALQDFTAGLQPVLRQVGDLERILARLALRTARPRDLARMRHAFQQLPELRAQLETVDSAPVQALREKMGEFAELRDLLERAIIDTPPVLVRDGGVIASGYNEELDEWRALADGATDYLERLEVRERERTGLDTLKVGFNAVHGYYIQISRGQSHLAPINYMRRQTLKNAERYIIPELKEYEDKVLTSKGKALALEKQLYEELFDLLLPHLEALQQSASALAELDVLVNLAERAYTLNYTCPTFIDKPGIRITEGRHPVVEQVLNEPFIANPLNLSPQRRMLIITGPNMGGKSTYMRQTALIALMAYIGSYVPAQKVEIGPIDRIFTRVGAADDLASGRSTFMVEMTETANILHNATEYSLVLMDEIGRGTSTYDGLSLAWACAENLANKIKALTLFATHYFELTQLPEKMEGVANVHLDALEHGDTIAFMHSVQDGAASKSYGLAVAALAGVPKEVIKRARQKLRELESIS

B1: Xlink unplatinated homoduplex GG-CC (dsDNA)
DNA 1: CCTCTCCTTGGTCTTCTCCTCTCC
DNA 2: GGAGAGGAGAAGACCAAGGAGAGG
B2: O6-meG-C duplex (dsDNA)
DNA 1: ATACGGAAGTTAAAGTGCGGATCATCTCTAG
DNA 2: CTAGAGATGATCCGCACTTTAACTTCCGTAT
modifications: O6-methylguanine at G17 of strand 1
B3: Xlink platinated GG-CC (dsDNA)
DNA 1: CCTCTCCTTGGTCTTCTCCTCTCC
DNA 2: GGAGAGGAGAAGACCAAGGAGAGG
modifications: cisplatin intrastrand 1,2-GG cross-link at G10-G11 of strand 1

Key:
Assay in all cases: EMSA
MutS [1] = target: T1, MutS
MutSΔ800 [2] = target: T2, MutSΔ800
MutS [3] = target: T1, MutS; remark: listed apart in the source
MutSΔ800 [4] = target: T2, MutSΔ800; remark: listed apart in the source

Binder	binding result (MutS [1])	binding result (MutSΔ800 [2])	binding result (MutS [3])	binding result (MutSΔ800 [4])
B1	no binding	no binding	–	–
B2	–	–	binds	binds
B3	binds	no binding	–	–
